Assay results as given in publication PMC7948458.

Assays:
Experiment in all cases: EMSA
OGG1 C146S C146S = OGG1 C146S C146S (UniProt O15527); conditions: EMSA: 0.1 nM DNA, 0.5-4000 nM OGG1, 25 mM Tris-HCl pH 7.6, 175 nM NaCl (sic), 1 mM EDTA, 1 mM DTT, 300 ug/ml BSA, 12% glycerol, 15 min, 4 C
OGG1 C140S C140S = OGG1 C140S C140S (UniProt O15527); conditions: 8-oxoguanine at position 16 of strand 1, opposite C; EMSA: 0.1 nM DNA, 0.5-4000 nM OGG1, 25 mM Tris-HCl pH 7.6, 175 nM NaCl (sic), 1 mM EDTA, 1 mM DTT, 300 ug/ml BSA, 12% glycerol, 15 min, 4 C
OGG1 C253S C253S = OGG1 C253S C253S (UniProt O15527); conditions: 8-oxoguanine at position 16 of strand 1, opposite C; EMSA: 0.1 nM DNA, 0.5-4000 nM OGG1, 25 mM Tris-HCl pH 7.6, 175 nM NaCl (sic), 1 mM EDTA, 1 mM DTT, 300 ug/ml BSA, 12% glycerol, 15 min, 4 C
OGG1 WT = OGG1 WT (UniProt O15527); conditions: EMSA: 0.1 nM DNA, 0.5-4000 nM OGG1, 25 mM Tris-HCl pH 7.6, 175 nM NaCl (sic), 1 mM EDTA, 1 mM DTT, 300 ug/ml BSA, 12% glycerol, 15 min, 4 C
OGG1 C241S C241S = OGG1 C241S C241S (UniProt O15527); conditions: EMSA: 0.1 nM DNA, 0.5-4000 nM OGG1, 25 mM Tris-HCl pH 7.6, 175 nM NaCl (sic), 1 mM EDTA, 1 mM DTT, 300 ug/ml BSA, 12% glycerol, 15 min, 4 C
OGG1 C255S C255S = OGG1 C255S C255S (UniProt O15527); conditions: 8-oxoguanine at position 16 of strand 1, opposite C; EMSA: 0.1 nM DNA, 0.5-4000 nM OGG1, 25 mM Tris-HCl pH 7.6, 175 nM NaCl (sic), 1 mM EDTA, 1 mM DTT, 300 ug/ml BSA, 12% glycerol, 15 min, 4 C
OGG1 C28S C28S = OGG1 C28S C28S (UniProt O15527); conditions: EMSA: 0.1 nM DNA, 0.5-4000 nM OGG1, 25 mM Tris-HCl pH 7.6, 175 nM NaCl (sic), 1 mM EDTA, 1 mM DTT, 300 ug/ml BSA, 12% glycerol, 15 min, 4 C
[1] = 8-oxoguanine at position 16 of strand 1, opposite C
[2] = tetrahydrofuran abasic analog at position 16 of strand 1 (written N), opposite base Y is C or A, not stated for this assay (written N)

OGG1 WT, sequence (O15527 whole entry): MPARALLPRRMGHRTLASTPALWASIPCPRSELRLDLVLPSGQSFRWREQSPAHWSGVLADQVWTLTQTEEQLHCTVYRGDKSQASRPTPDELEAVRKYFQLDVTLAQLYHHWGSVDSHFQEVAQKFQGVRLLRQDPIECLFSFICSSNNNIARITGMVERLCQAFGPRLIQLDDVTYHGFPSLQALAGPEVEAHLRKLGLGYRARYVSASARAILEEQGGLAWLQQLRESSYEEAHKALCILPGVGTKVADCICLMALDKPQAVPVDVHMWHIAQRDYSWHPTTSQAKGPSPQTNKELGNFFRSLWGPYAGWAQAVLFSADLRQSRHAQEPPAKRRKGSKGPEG
OGG1 C146S C146S, sequence (O15527 whole entry C146S): as the sequence (O15527 whole entry) above, with C146S counted along it
OGG1 C241S C241S, sequence (O15527 whole entry C241S): as the sequence (O15527 whole entry) above, with C241S counted along it
OGG1 C28S C28S, sequence (O15527 whole entry C28S): as the sequence (O15527 whole entry) above, with C28S counted along it
OGG1 C253S C253S, sequence (O15527 whole entry C253S): as the sequence (O15527 whole entry) above, with C253S counted along it
OGG1 C140S C140S, sequence (O15527 whole entry C140S): as the sequence (O15527 whole entry) above, with C140S counted along it
OGG1 C255S C255S, sequence (O15527 whole entry C255S): as the sequence (O15527 whole entry) above, with C255S counted along it

With “CGTTCAACGTGCACTGACAGCACGTCCCAT (double strand) [8-oxoG:C 30-mer duplex]” as the sequence, how does the binding signal (fold increase in Kd vs WT) (OGG1 C146S C146S; [1]) read?
Its binding signal (fold increase in Kd vs WT) is 10.

And the binding signal (fold increase in Kd vs WT) (OGG1 C140S C140S)?
Its binding signal (fold increase in Kd vs WT) is 10.

What about the binding signal (fold increase in Kd vs WT) (OGG1 C253S C253S) of the same sequence?
The binding signal (fold increase in Kd vs WT) was 10.

And the Kd (OGG1 WT; [1])?
The Kd was 1.9 nM.

What about the binding signal (fold increase in Kd vs WT) (OGG1 C241S C241S; [1]) of the same sequence?
Its binding signal (fold increase in Kd vs WT) is 10.

And the binding signal (fold increase in Kd vs WT) (OGG1 C255S C255S)?
The binding signal (fold increase in Kd vs WT) was 10.

What about the binding signal (fold increase in Kd vs WT) (OGG1 C28S C28S; [1]) of the same sequence?
Its binding signal (fold increase in Kd vs WT) is 10.

“CGTTCAACGTGCACTGACAGCACGTCCCAT / ATGGGACGTGCTGTAAGTGCACGTTGAACG [8-oxoG:A 30-mer duplex]” was tested. Which Kd (OGG1 WT; 8-oxoguanine at position 16 of strand 1, opposite A) did it give?
The Kd was 201 nM.

Which Kd (OGG1 C146S C146S; [2]) does the source give for “CGTTCAACGTGCACTNACAGCACGTCCCAT (double strand) [THF 30-mer duplex]” here?
The Kd was 9.9 nM.

What about the Kd (OGG1 WT; [2]) of the same sequence?
The Kd was 0.6 nM.

And the Kd (OGG1 C241S C241S; [2])?
The Kd was 3.5 nM.

And the Kd (OGG1 C28S C28S; [2])?
The Kd was 2.2 nM.
